Entries after “also recorded” stand apart in the source; their conditions may differ. Where no end group is shown, it is not given here.
Tests used:
[1] = target: gp96 (Homo sapiens, UniProt P14625); experiment: In vitro binding of IPF with heat shock protein gp96
Description: FIG. 9 is a graph showing binding of an IPF with heat shock protein gp96 at dilutions of IPF 1/2500, IPF 1/500 and IPF 1/100, according to one embodiment of the present invention. A number of approaches may be used to detect complexing between IPF and gp96. By way of example, one such approach may be to obtain specific antibodies against IPF and gp96 and to build a sandwich immunoassay by suitable methods known in the art to detect the presence of these protein complexes. To detect binding of gp96 to IPF, the antigen may be coated on a plate to capture proteins from the sample and then report the binding with a specific detection antibody. The secondary (or detection) antibody may be directly labeled with MSD SULFO-TAG NHS ester or a SULFO-TAG-labeled anti-species, e.g., anti-mouse if the […] antibody is raised in mouse and the […] antibody is raised in a different species than the capture or primary antibody. Antibodies specific to IPF-gp96 complexes may also be used.

[2] = stated in contrast to IPF; cited from earlier work
[3] = target: human CD4 (Homo sapiens, UniProt P01730); experiment: Biacore (SPR) binding of IPF to human CD4; settings: in vitro
Experimental: (§1) BIACORE assays were used for binding affinity. This technology measures mass concentration of biomolecules close to a surface. The surface is made specific by attaching one of the interacting partners. Sample containing the other partner(s) flows over the surface: when molecules from the sample bind to the interactant attached to the surface, the local concentration changes and an SPR (surface plasmon resonance) response is measured. The response is directly proportional to the mass of molecules that bind to the surface. The SPR response may be expressed by resonance units (RU). One RU represents change of 0.0001 in the angle of the intensity minimum which is equivalent to a change in concentration of […].
(§2) The exact conversion factor between RU and surface concentration depends on properties of the sensor surface and the nature of the molecule responsible for the concentration change.
(§3) The assays for these bindings were conducted by The Institute for Molecular Medicine using standard protocols.
The BIACORE biosensor instrument for detecting compound ligand interaction. BIACORE may capture proteins including molecules from ctyosolic or tissue extracts on sensor surfaces and measure the binding kinetics. SPR is an optical technique that measures the refractive index change occurring at the sensor liquid-fluid interface layer. […]

[4] = Biacore (SPR) binding of IPF to human serum; settings: in vitro
Experimental: as §1, §2, §3

Chain of gp96 (P14625 22-803): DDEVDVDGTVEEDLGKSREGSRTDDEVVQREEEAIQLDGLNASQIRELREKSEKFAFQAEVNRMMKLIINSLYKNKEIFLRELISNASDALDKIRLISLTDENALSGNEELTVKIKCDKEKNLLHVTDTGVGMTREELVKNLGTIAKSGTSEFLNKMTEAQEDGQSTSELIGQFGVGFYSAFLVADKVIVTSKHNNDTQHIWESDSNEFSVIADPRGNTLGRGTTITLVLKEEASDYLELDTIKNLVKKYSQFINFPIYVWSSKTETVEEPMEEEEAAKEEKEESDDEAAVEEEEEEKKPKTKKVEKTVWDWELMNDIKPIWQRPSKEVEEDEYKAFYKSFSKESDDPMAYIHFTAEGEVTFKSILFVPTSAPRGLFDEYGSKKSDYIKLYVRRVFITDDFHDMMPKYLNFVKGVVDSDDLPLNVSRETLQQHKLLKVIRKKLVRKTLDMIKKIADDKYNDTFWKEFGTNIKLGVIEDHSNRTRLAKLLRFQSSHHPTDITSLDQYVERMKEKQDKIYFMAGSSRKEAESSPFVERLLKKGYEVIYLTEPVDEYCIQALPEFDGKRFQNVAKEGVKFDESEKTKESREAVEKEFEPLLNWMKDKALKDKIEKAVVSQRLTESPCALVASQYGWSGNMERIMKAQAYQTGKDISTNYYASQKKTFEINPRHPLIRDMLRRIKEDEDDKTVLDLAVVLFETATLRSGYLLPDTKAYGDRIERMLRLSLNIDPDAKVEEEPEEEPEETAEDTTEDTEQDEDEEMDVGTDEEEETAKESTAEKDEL

Row | Substance | in vitro binding affinity for gp96 [1] | also measured
1 | IPF-4: peptide of SEQ ID NO 4, MTLTTGSGAIAPAMPPGLPPHTGAIHAPM, from porcine pepsinogen (listed as Sus scrofa) | significant in vitro binding affinity | –
2 | IPF-5: peptide of SEQ ID NO 5, CCATSGPCGAVMILTPHLTA, from porcine pepsinogen (listed as Sus scrofa) | significant in vitro binding affinity | –
3 | IPF-3: peptide of SEQ ID NO 3, NXVPVSVEGYXQITLDSITX, fragment of approximately 13.5 kDa from porcine pepsinogen (not fully specified; X: residue not identified in the source; listed as Sus scrofa) | significant in vitro binding affinity | –
4 | Pepsin: porcine pepsin A, the starting material, compared for pI | – | pI [2]: low
5 | IPF-6: antiviral peptide characterized by SEQ ID NO 6, GDEPLENYLDTEYF, isolated from 45 kDa band of porcine pepsinogen preparation (listed as Sus scrofa) | – | binding with human CD4+ cells [3]: significant in vitro binding affinity; also recorded: demonstrates binding in vitro; binding with human serum [4]: demonstrates binding in vitro
6 | IPF-2: peptide of SEQ ID NO 2, TLSTATGGAIPPVAAMPPGLVAPTHGPAIHP, from porcine pepsinogen (listed as Sus scrofa) | significant in vitro binding affinity | –
7 | IPF-1: peptide of SEQ ID NO 1, TLTSGGGAIALPPSMAAPPLGPVAPLTGAIHAPTXG, fragment of approximately 45 kDa from porcine pepsinogen (not fully specified; X: residue not identified in the source; listed as Sus scrofa) | significant in vitro binding affinity | –
